These results are taken from paper PMC5855017, “Label-Free Aptasensor for Lysozyme Detection Using Electrochemical Impedance Spectroscopy”.

For the series, the target named is Lysozyme (UniProt P00698 19-147). Put plainly: electrochemical impedance spectroscopy (label-free aptasensor); PEG-blocked electrode; 0.25-5 uM lysozyme; LOD 1.67 uM, slope 0.090 uM-1 (not Kd); Room temperature incubation; buffers listed: PBS (187 mM NaCl, 2.7 mM KCl, 8.1 mM Na2HPO4, 1.76 mM KH2PO4, pH 7.0) and BB (1 mM MgCl2, 2.7 mM KCl, 140 mM NaCl). The settings on record: protein: commercial.
Chain of Lysozyme (P00698 19-147): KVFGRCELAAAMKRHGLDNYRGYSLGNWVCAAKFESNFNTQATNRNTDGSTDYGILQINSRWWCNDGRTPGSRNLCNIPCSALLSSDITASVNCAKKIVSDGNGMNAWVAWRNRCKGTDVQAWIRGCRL

For the molecule ATCTACGAATTCATCAGGGCTAAAGAGTGCAGAGTTACTTAG (ssDNA, 5' aminolink C6, immobilized via amide bond on graphite-epoxy electrode) [AptLys (lysozyme aptamer)], the binding result is “binds”.
